B1: Mutant of the C-terminal part and histidine tag, SEQ ID NO: 26 (other)
chain: MHHHHHHGAMARKELSSLEELFRHYGVRYMTLTKMVEMGFTVNTLVNMTEQELDDVIRTLVDIYRVDLLVGEKYGIKSAVRAEKRRLDELERKKGGSC
B2: Mutant of the C-terminal part and histidine tag, SEQ ID NO: 27 (other)
chain: MHHHHHHGAMARKELSSLEELFRHYGVRYMTLTKMVEMGFTVNTLVNMTEQELDDVIRTLVDIYRVDLLVGEKYGIKSAVRAEKRRLDELERKKGGSHHHHHH
B3: Mutant with a self-reducing sequence at the C-terminal part, SEQ ID NO: 29 (C-terminal part and histidine tag modified) (other)
chain: MKHHHHHHPGAMARKELSSLEELFRHYGVRYMTLTKMVEMGFTVNTLVNMTEQELDDVIRTLVDIYRVDLLVGEKYGIKSAVRAEKRRLDELERKKGGSTGTSVLIATPGV
B4: Mutant with a self-reducing sequence at the C-terminal part, SEQ ID NO: 31 (C-terminal part and histidine tag modified) (other)
chain: MKHHHHHHPGAMARKELSSLEELFRHYGVRYMTLTKMVEMGFTVNTLVNMTEQELDDVIRTLVDIYRVDLLVGEKYGIKSAVRAEKRRLDELERKKGGSWAGAKRLVLRRE
B5: Mutant of the C-terminal part and the histidine tag, SEQ ID NO: 18 (C-terminal part removed, histidine tag modified) (other)
chain: MHHHHHHGAMARKELSSLEELFRHYGVRYMTLTKMVEMGFTVNTLVNMTEQELDDVIRTLVDIYRVDLLVGEKYGIKSAVRAEKRR

Target: the molecule itself
Assay: self-assembly (homo-oligomerisation) by crystallisation on a substrate

Binding result, binds:
B1, B2, B3, B4, B5

From patent US20220380486A1 (COMMISSARIAT A L ENERGIE ATOMIQUE ET AUX ENERGIES …, published 2022)
